Residue numbers refer to the chain shown, from its start.
Columns and labels:
[1] = target: T1, full length human tau protein 2N4R (hT40) (human, UniProt P10636 1-758); test: SPR, hT40 immobilised, mAb analyte
T1 construct: recombinant; also called T441
Protocol: (§1) For anti-tau mAb SPR measurements, htau40 was conjugated to the surface of a CM5 sensor chip using amine coupling as explained previously. Briefly, 2 μg/mL htau40 in 10 mM Sodium acetate buffer (pH 4.0) was passed over the activated chip surface (EDC/NHS) in flow cell 2 for a period for 45 s followed by blocking with 1 M ethanolamine-HCl PH 8.5. Flow cell 1 was set up as reference control and blocked simultaneously. Final immobilisation level of htau40 (Rmax) was approximately 250 RU. […] The mAb was added for a 120 s association period and 600 s dissociation period followed by a regeneration cycle of 30 s injection of glycine buffer pH 1.5 in between each cycle. Binding responses were analysed in Biacore X100 evaluation software and data fitted to a 1:1 binding model to obtain kinetic and affinity characterisation.
For anti-tau mAb SPR measurements (Biacore X100™) and epitope mapping, the same methodologies described above (see Example 16) were followed.

[2] = target: T1, full length human tau protein 2N4R …; test: Biacore
Protocol: (§2) The capture antibody was diluted 1/100 in 10 mM Sodium acetate buffer pH 5.0 and passed over the activated chip surface for a period of at least 420 s. Final ligand immobilisation levels over 12,000 RU were deemed to be satisfactory.
(§3) The scAb to be tested was added only to flow cell 2 so that flow cell 1 could act as a control to subtract any interaction with the analyte and the chip surface. […] The multi-cycle protocol was as follows-Three start-up cycles composed of an initial capture, to the desired level, of the scAb to be tested was performed followed by a 30 s injection of glycine buffer pH 2.0 after each cycle to regenerate the chip surface. […] The target was added for a 120 s association period and 420 s dissociation period followed by another regeneration, 30 s injection of glycine buffer pH 2.0 in between each cycle.
(§4) The single cycle kinetics protocol was similar and utilised the same level of scAb capture. […] In single cycle kinetics the regeneration step was performed only after the final analyte concentration was added. Binding responses were analysed in Biacore X100 evaluation software and data fitted to a 1:1 binding model to obtain kinetic and affinity characterisation.

[3] = target: T1, full length human tau protein 2N4R …; test: sandwich ELISA, S1D12 mAb capture, scAb detection
Protocol: Full length tau (hT40), at 1 μg/ml starting concentration was added to designated wells and double diluted across rest of the plates and left to incubate at R/T for 1 h. A series of detection scAbs with varying epitope recognition properties were added at 10 μg/ml to designated wells (FIG. 22). For colourimetric detection HRP conjugated anti-HuCk secondary antibody was used and the resulting immunoreaction was developed and absorbance at 450 nm measured as described previously. Cut-off point for a positive binding event was an absorbance value of 0.3 following background subtraction. In order to enhance the assay sensitivity, a chemiluminescent detection method was adopted where 50 μL SuperSignal ELISA Femto Substrate (Thermo Scientific) was added to each well following incubation with anti-HuCK HRP antibody and subsequent washing. The luminescence was read using Clariostar Plus microplate reader. A further modification to this protocol was done where various detection scAbs were directly conjugated with HRP and detected using chemiluminescent protocol as before.

[4] = target: T1, full length human tau protein 2N4R …; test: SPR, scAb captured, tau analyte
Protocol: as §2, §3, §4

[5] = target: T1, full length human tau protein 2N4R …; test: SPR, summary table
Protocol: as §2, §3, §4

[6] = target: T1, full length human tau protein 2N4R …; test: SPR, hT40 immobilised, mAb analyte; remark: listed apart in the source
Protocol: as §1

dGA (tau 297-390) = dGA (tau 297-390) (human, UniProt P10636 614-707); test: SPR, scAb captured, tau analyte
Sequence of dGA (tau 297-390) (P10636 614-707 limits assumed): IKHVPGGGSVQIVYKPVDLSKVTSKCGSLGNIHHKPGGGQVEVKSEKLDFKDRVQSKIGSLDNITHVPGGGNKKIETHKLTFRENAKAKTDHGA
Protocol: as §2, §3, §4

T1 sequence (P10636 other isoform, or with tags, fused parts or gaps limits assumed): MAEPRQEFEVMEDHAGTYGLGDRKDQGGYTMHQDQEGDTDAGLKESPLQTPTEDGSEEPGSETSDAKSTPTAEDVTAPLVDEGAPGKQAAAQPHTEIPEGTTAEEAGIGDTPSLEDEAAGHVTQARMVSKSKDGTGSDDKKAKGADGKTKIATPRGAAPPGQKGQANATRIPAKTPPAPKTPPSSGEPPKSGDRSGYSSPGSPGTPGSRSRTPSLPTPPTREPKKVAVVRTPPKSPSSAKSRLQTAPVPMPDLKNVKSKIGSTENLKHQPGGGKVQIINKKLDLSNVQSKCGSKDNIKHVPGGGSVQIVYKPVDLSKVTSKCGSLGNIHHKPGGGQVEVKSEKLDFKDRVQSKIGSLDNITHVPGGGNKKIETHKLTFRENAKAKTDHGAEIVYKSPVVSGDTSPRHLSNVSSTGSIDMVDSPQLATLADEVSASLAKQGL

B1: 3bD11 mAb (antibody)
chain: RVRLQGSGPSLVKPSQTLSLTCTVSGFSFDSYYVGWVRQAPGKALEWLGNIYSTGRAFYNPALKSRLSITRDTSKSQVSLSVSSVTIEDTALYYCVRGSYYHGGGNGMVDFFDYWSPGLLVTVSSEGKSSGASGESKVDDQVVRTQPSSVSGSLGQRVSITCSGSSSNVGYGNYVGWFQQVPGSAPKLLIYAATSRASGVPDRFSGSRSGNTATLTIDSLQAEDEADYYCSSYQRGNTGVFGSGTRLTVLG
In the case of B1, the Kd [1] is reported as 1.49 nM, the koff [1] is reported as 0.00398 s⁻¹ and the kon [1] is reported as 2.67e+06 M⁻¹ s⁻¹.

B2: CC7 scAb (scFv, not shown: small tags and cut ends)
scFv: QVQLQESGPSLVKPSQTLSLTCTVSGFSLTSNAVIWVRQAPGKAPEWVALIDVDGDAAYDPALKSRLSITRDTSKSQVSLSLRSVTTEDTAVYYCARDYGSWGYVSDIDYWGPGLLVTVSSEGKSSGASGESKVDDRVVRTQPSSVSGSLGQRVSITCSGSYITGSSVGWFQQVPGSGLKTVIYDNNDRPSGVPDRFSGSKSGDTATLTISSLQAEDEADYYCASYDTSNIGLFGSGTRLTVLG
notes: scAb
In the case of B2, the Kd [2] is reported as 1.2 nM, the LoD chemiluminescence detection [3] is reported as 3.33 ng/mL and the LoD colourimetric detection [3] is reported as 6 ng/mL. The Kd [4] was 1.23 nM, the koff [4] was 0.000366 s⁻¹ and the kon [4] was 296000 M⁻¹ s⁻¹. For the same binder, the Kd [5] was 1.23 nM.

B3: CE2 mAb (antibody, mouse IgG2a, V domains shown)
VH: QVQLQESGPSLVKPSQTLSLTCTVSGFSLTNYPVGWVRQAPGKALEWIGNIENDGSANYASALKSRLSITRDTSKNQVSLSLSSATTEDTAVYYCGREFGGSDGYTYFVDIDYWGPGLLVTVSS
VL: QAVLTQPSSVSKSLGQSVSITCSGSSSNVGYGNYVSWFQQVPGSAPKILIYGATSRASGVPDRFSGSRSGNTATLTITSLQAEDEADYYCASYDGSSSGVFGSGTRLTVLG
notes: sheep-mouse IgG2a chimeric mAb
B3 was tested, and the Kd [6] was 11 nM, the koff [6] was 0.00522 s⁻¹ and the kon [6] was 458000 M⁻¹ s⁻¹.

B4: E1B8 mAb (antibody, V domains shown)
VH: B3 VH
VL: B3 VL
For B4, the Kd [1] was 4.22 nM, the koff [1] was 0.00137 s⁻¹ and the kon [1] was 324000 M⁻¹ s⁻¹.

B5: 3bG4 mAb (antibody, mouse IgG2a, V domains shown)
VH: QVQLQESGPSLVKPSQTLSLTCTISGFSLISNGVGWVRQAPGKVPEWVGDIASSGKAYSNPALKSRLSITRDTSKSQVSLSLRSVTTEDTAVYYCVRCRDGGVTYGYDIDYWGPGLLVTVSS
VL: QAVLTQPSSVSKSLGQSVSITCSGSTSNVGSGNDVSWFQQVPGSAPKLLFYGATNRASGVPDRFSGSRSGNTATLTITSLQAEDEADYYCGSYDSNSGGIFGSGTRLTVLG
notes: as for B3
B5 showed a Kd [1] of 0.065 nM, a koff [1] of 0.000296 s⁻¹ and a kon [1] of 4.54e+06 M⁻¹ s⁻¹.

B6: 3aG3 mAb (antibody, V domains shown)
VH: B5 VH with I24V, I30S, A52S, S59A, S74A, S76T, S79F, R83S, T104S
VL: QAVLTQPPSVSGSPGQRVSITCSGSSSNIGGGNYLSWFQQVPGSAPKLLIYGATSRASGVPDRFSGSRSGNTATLTISSLQAEDEADYYCASFDTSSGGIFGAGTRLTVLG
Binder B6 has a Kd [1] of 0.31 nM, a koff [1] of 0.00475 s⁻¹ and a kon [1] of 1.53e+07 M⁻¹ s⁻¹.

B7: 412E10 mAb (antibody, mouse IgG2a, V domains shown)
VH: QVQLQESGPSLVKPSQTLSLTCTVSGFSVISDSVAWVRQAPGKVPEWLGASGSSGNKYYNPALKSRLSITRDTSKSQVSLSLSSVTTEDTAVYYCARGIIAGVDVWGRGLLVTVSS
VL: QAVLTQPSSVSGSLGQRVSITCSGSSSNVGYGNYVGWYQQVPGSAPKLLIYGTAIRASGVPDRFSGSRSGDTATLTITSLQAEDEADYYCASYQSNYAFFGSGTRLTVLG
notes: as for B3
Binder B7 has a Kd [6] of 9 nM, a koff [6] of 0.015 s⁻¹ and a kon [6] of 1.66e+06 M⁻¹ s⁻¹.

B8: 3aH6 mAb (antibody)
heavy: QVQLQESGPSLVKPSQTLSLTCTVSGFSLSSNGVGWVRQAPGKVPEWLGDISSVGKKYANPALKSRLSFTRDTSKSQVSLSLSSVTTEDTAVYYCVKCRDGGVTYGYDIDYWGPGLLVTASSAKTTAPSVYPLAPVCGDTTGSSVTLGCLVKGYFPEPVTLTWNSGSLSSGVHTFPAVLQSDLYTLSSSVTVTSSTWPSQSITCNVAHPASSTKVDKKIEPRGPTIKPCPPCKCPAPNLLGGPSVFIFPPKIKDVLMISLSPIVTCVVVDVSEDDPDVQISWFVNNVEVHTAQTQTHREDYNSTLRVVSALPIQHQDWMSGKEFKCKVNNKDLPAPIERTISKPKGSVRAPQVYVLPPPEEEMTKKQVTLTCMVTDFMPEDIYVEWTNNGKTELNYKNTEPVLDSDGSYFMYSKLRVEKKNWVERNSYSCSVVHEGLHNHHTTKSFSRTPGK
light: QAVVTQPSSVSGSLGQSVSITCSGSSGNVGYGDYVSWFQQFHGSAPKLLIYGATNLASGVPARFSGSRSGNTATLTISSLHAEDEADYYCASYDSSSGGVFGSGTRLTVLGGQPKSSPSVTLFPPSSEELETNKATLVCTITDFYPGVVTVDWKVDGTPVTQGMETTQPSKQSNNKYMASSYLTLTARAWERHSSYSCQVTHEGHTVEKSLSRADCS
B8 was tested, and the Kd [1] was 0.049 nM, the koff [1] was 0.000152 s⁻¹ and the kon [1] was 3.13e+06 M⁻¹ s⁻¹.

B9: MD9 mAb (antibody, V domains shown)
VH: QVRLQESGPSLVKSSQTLSLTCTVSGFSLTRESIAWVRQAPGKVPEWLGGVGIDGTSYYSPALKSRLSITRDTSKSQASLSLSSVATEDTAMYYCARNYIDFEYWGPGLLVTVSS
VL: QAVLTQLSSVSGSLGQRISITCSGSSSNVGIYDVSWFQQLPGSGLRTVIYGTNNRPSGVPDRFSGSRSGNTATLTISSLQSEDEAIYYCAAGDSSTIAVFGSGTRLTVLG
In the case of B9, the Kd [1] is reported as 22 nM, the koff [1] is reported as 0.00146 s⁻¹ and the kon [1] is reported as 66200 M⁻¹ s⁻¹.

B10: CE3 mAb (antibody, mouse IgG2a, V domains shown)
VH: QVRLQESGPSLVKPSQTLSVTCTVSGFSLISNAVGWVRQAPGKVPESLAGCSSDGKCYYNSALKSRLDITRDTSKNQISLSLSSVTTDDAAVYYCTRGYYPVYGYDYLGTIDYWGPGLLVTVSS
VL: QAVLTQPSSVSGSLGQRVSITCSGSSSNVGRNDVAWFQQLPGSGLRTIIYGTTSRPSGIPDRFSGSKSGVTATLTIDSLQAEDEADYFCASGDSSAINDIFGSGTRLTVLG
notes: as for B3
B10 was tested, and the Kd [6] was 16.7 nM, the koff [6] was 0.00172 s⁻¹ and the kon [6] was 103000 M⁻¹ s⁻¹.

B11: S1E12 scAb (scFv, not shown: small tags and cut ends)
scFv: QVQLQESGPSLVKPSQTLSLTCTVSGFSLGSNSVGWVRQAPGKAPEWVAGIDTDGEEGYNPALNSRLSITRDTSKSQVSLSLSSVTSEDTAVYYCGRSYRADGLAYGYVQAIDYWGPGLLVTVSSEGKSSGASGESKVDDRVVRTQPSSVSGSLGQRVSITCSGSFIGISSVGWFQQLPGSGLRTIIVASDGRPSGVPDRFSMSKSGNTATLTISSLQAEDEADYFCGSSDRTQYTGVFGSGTRLTVLG
notes: scAb
B11 gave a Kd (dGA (tau 297-390)) of 0.543 nM, a koff (dGA (tau 297-390)) of 0.00163 s⁻¹ and a kon (dGA (tau 297-390)) of 2.99e+06 M⁻¹ s⁻¹. The Kd [4] was 0.829 nM, the koff [4] was 0.000319 s⁻¹ and the kon [4] was 385000 M⁻¹ s⁻¹. The Kd [5] was 0.829 nM.
